Patent EP0997477B1
Like-named read-outs stand apart in the source and are kept apart here.

Assays:
[1] = molecular target: full length I-A^d/OVA 323-339 MHC class II fusion complex (pJRS165.1) expressed on NSO cells (mouse; chicken) (UniProt P04228); test: flow cytometry, FITC-conjugated anti-IA^k control (1:100) on clone NSO/IA^d/OVA.B5
[2] = molecular target: full length I-A^d/OVA 323-339 MHC class II fusion complex (pJRS165.1) expressed on NSO cells (mouse; chicken) (UniProt P04228); test: flow cytometry, FITC-conjugated anti-IA^k control (1:100) on clone NSO/IA^d/OVA.B2
[3] = molecular target: full length I-A^d/OVA 323-339 MHC class II fusion complex (pJRS165.1) expressed on NSO cells (mouse; chicken) (UniProt P04228); test: flow cytometry, FITC-conjugated anti-IA^k control (1:100) on clone NSO/IA^d/OVA.A4
[4] = molecular target: murine Class II MHC molecule I-A^d on A20.1-11 cells (mouse) (UniProt P04228); test: flow cytometry, FITC-conjugated anti-IA^k control (1:100) on A20.1 cells (+ control)
[5] = molecular target: full length I-A^d/OVA 323-339 MHC class II fusion complex (pJRS165.1) expressed on NSO cells (mouse; chicken) (UniProt P04228); test: flow cytometry, FITC-conjugated anti-IA^k control (1:100) on clone NSO/IA^d/OVA.B4
[6] = molecular target: T cell receptor of the murine T cell hybridoma DO11.10, specific for OVA 323-339 presented by I-A^d; test: cell-based or functional assay
[7] = molecular target: T cell receptor of the murine T cell hybridoma DO11.10, specific for OVA 323-339 presented by I-A^d; test: cell-based or functional assay; remark: listed apart in the source
[8] = molecular target: membrane-bound single-chain I-A^d-OVA (SCT1) on transfected NSO cells (mouse (I-A^d); chicken (OVA peptide)); test: flow cytometry, FITC-conjugated 10-3.6 control (1:100) on T2 (SCT1-transfectant)
[9] = molecular target: membrane-bound single-chain I-A^d-OVA (SCT1) on transfected NSO cells (mouse (I-A^d); chicken (OVA peptide)); test: flow cytometry, FITC-conjugated 10-3.6 control (1:100) on T6 (SCT1-transfectant)
[10] = molecular target: membrane-bound single-chain I-A^d-OVA (SCT1) on transfected NSO cells (mouse (I-A^d); chicken (OVA peptide)); test: flow cytometry, FITC-conjugated 10-3.6 control (1:100) on T12 (SCT1-transfectant)
[11] = molecular target: soluble single-chain I-A^d-OVA from insect (SF9) cells (SSC1 gene in pMBSC1.2) (mouse (I-A^d); chicken (OVA peptide)); test: I-A^d sandwich ELISA (capture M5/114, detection biotinylated AMS-32.1), sc I-A^d-OVA from insect cell culture (positive control)
[12] = molecular target: soluble single-chain I-A^d-OVA with EE antibody tag (SCE1) secreted by transfected NSO cells (mouse (I-A^d); chicken (OVA peptide)); test: I-A^d sandwich ELISA (capture M5/114, detection biotinylated AMS-32.1), undiluted supernatant of E11 (SCE1 transfectant)
[13] = molecular target: soluble single-chain I-A^d-OVA from insect (SF9) cells (SSC1 gene in pMBSC1.2) (mouse (I-A^d); chicken (OVA peptide)); test: I-A^d sandwich ELISA (capture M5/114, detection biotinylated AMS-32.1), supernatant of virus clone F8
[14] = molecular target: soluble single-chain I-A^d-OVA from insect (SF9) cells (SSC1 gene in pMBSC1.2) (mouse (I-A^d); chicken (OVA peptide)); test: I-A^d sandwich ELISA (capture M5/114, detection biotinylated AMS-32.1), cotransfection supernatant 1:4
[15] = molecular target: soluble single-chain I-A^d-OVA from insect (SF9) cells (SSC1 gene in pMBSC1.2) (mouse (I-A^d); chicken (OVA peptide)); test: I-A^d sandwich ELISA (capture M5/114, detection biotinylated AMS-32.1), cotransfection supernatant 1:2
[16] = molecular target: membrane-bound single-chain I-A^d-OVA (SCT1) on transfected NSO cells (mouse (I-A^d); chicken (OVA peptide)); test: flow cytometry, FITC-conjugated AMS 32.1 (1:100) on T6 (SCT1-transfectant)
[17] = molecular target: soluble single-chain I-A^d-OVA from insect (SF9) cells (SSC1 gene in pMBSC1.2) (mouse (I-A^d); chicken (OVA peptide)); test: I-A^d sandwich ELISA (capture M5/114, detection biotinylated AMS-32.1), supernatant of virus clone C6
[18] = molecular target: membrane-bound single-chain I-A^d-OVA (SCT1) on transfected NSO cells (mouse (I-A^d); chicken (OVA peptide)); test: flow cytometry, FITC-conjugated AMS 32.1 (1:100) on T2 (SCT1-transfectant)
[19] = molecular target: soluble single-chain I-A^d-OVA from insect (SF9) cells (SSC1 gene in pMBSC1.2) (mouse (I-A^d); chicken (OVA peptide)); test: I-A^d sandwich ELISA (capture M5/114, detection biotinylated AMS-32.1), cotransfection supernatant undiluted
[20] = molecular target: membrane-bound single-chain I-A^d-OVA (SCT1) on transfected NSO cells (mouse (I-A^d); chicken (OVA peptide)); test: flow cytometry, FITC-conjugated AMS 32.1 (1:100) on T12 (SCT1-transfectant)
[21] = molecular target: Neuron Specific Enolase (NSE) in supernatant of SF9 cells infected with a recombinant Baculovirus; test: I-A^d sandwich ELISA (capture M5/114, detection biotinylated AMS-32.1), NSE baculovirus supernatant as negative control
[22] = molecular target: soluble single-chain I-A^d-OVA from insect (SF9) cells (SSC1 gene in pMBSC1.2) (mouse (I-A^d); chicken (OVA peptide)); test: I-A^d sandwich ELISA (capture M5/114, detection biotinylated AMS-32.1), cotransfection supernatant 1:8
[23] = molecular target: soluble single-chain I-A^d-OVA with EE antibody tag (SCE1) secreted by transfected NSO cells (mouse (I-A^d); chicken (OVA peptide)); test: I-A^d sandwich ELISA (capture M5/114, detection biotinylated AMS-32.1), undiluted supernatant of E10 (SCE1 transfectant)

Sequence of UniProt P04228 (P04228 24-256, chain 1 of 2): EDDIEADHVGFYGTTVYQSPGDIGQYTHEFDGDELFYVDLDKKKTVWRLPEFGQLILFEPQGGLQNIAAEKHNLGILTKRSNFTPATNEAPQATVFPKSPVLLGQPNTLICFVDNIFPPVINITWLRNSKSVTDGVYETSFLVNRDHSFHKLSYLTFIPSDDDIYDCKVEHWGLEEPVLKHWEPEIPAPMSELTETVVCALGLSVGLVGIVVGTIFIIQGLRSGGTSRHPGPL
Sequence of UniProt P04228 (P01921 28-265, chain 2 of 2, further chain): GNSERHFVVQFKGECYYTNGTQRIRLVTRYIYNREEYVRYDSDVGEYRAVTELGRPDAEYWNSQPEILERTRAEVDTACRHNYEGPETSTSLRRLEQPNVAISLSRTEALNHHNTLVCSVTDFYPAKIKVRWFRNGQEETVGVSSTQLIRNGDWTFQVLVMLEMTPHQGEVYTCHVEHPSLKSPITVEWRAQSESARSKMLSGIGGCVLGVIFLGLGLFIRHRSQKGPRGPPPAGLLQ

FITC-conjugated anti-IA^k antibody (Pharmingen), isotype matched irrelevant antibody
peak channel fluorescence [1]: 10 peak channel | peak channel fluorescence [2]: 14 peak channel | peak channel fluorescence [3]: 34 peak channel | peak channel fluorescence [4]: 5 peak channel | peak channel fluorescence [5]: 11 peak channel

membrane-bound single-chain I-A^d-OVA (SCT1) on transfected NSO cells (peptide-MHC)
IL-2 ELISA result (Absorbance); antigen presenting cell T2 (SCT1 transfectant) [6]: 0.758 absorbance | IL-2 ELISA result (Absorbance); antigen presenting cell T6 (SCT1 transfectant) [6]: 0.307 absorbance | IL-2 ELISA result (Absorbance); antigen presenting cell T12 (SCT1 transfectant) [7]: 1.03 absorbance

OVA 323-339 peptide presented by I-A^d on A20 cells (from UniProt P04228 24-256; P01921 28-265) (peptide-MHC)
IL-2 ELISA result (Absorbance); A20+OVA 323-339 peptide (positive control) [6]: 1.33 absorbance | IL-2 ELISA result (Absorbance); A20+OVA 323-339 peptide (positive control) [7]: 1.45 absorbance

isotype matched FITC-conjugated anti-I-A^k antibody, 10-3.6 (PharMingen)
Mean Fluorescence (mean fluorescence) [8]: 22 | Mean Fluorescence (mean fluorescence) [9]: 45.1 | Mean Fluorescence (mean fluorescence) [10]: 45.9

AMS-32.1 anti-IA^d (Pharmingen part number 06032D) (antibody)
Absorbance (405 nm) [11]: 2.44 absorbance | Absorbance (405 nm) [12]: 0.96 absorbance | Absorbance (405 nm) [13]: 1.45 absorbance | Absorbance (405 nm) [14]: 0.305 absorbance | Absorbance (405 nm) [15]: 0.524 absorbance | Mean Fluorescence (mean fluorescence) [16]: 418 | Absorbance (405 nm) [17]: 1.56 absorbance | Mean Fluorescence (mean fluorescence) [18]: 613 | Absorbance (405 nm) [19]: 0.857 absorbance | Mean Fluorescence (mean fluorescence) [20]: 911 | Absorbance (405 nm) [21]: 0.098 absorbance | Absorbance (405 nm) [22]: 0.165 absorbance | Absorbance (405 nm) [23]: 0.781 absorbance

soluble single-chain I-A^d-OVA from insect (SF9) cells (SSC1 gene in pMBSC1.2) (peptide-MHC)
IL-2 concentration in DO11 super; immobilized sc IA^d-OVA 78 ng/well [6]: 45 U/ml | IL-2 concentration in DO11 super; immobilized sc IA^d-OVA 156 ng/well [6]: 100 U/ml | IL-2 concentration in DO11 super; immobilized sc IA^d-OVA 312 ng/well [6]: 109 U/ml | IL-2 concentration in DO11 super; immobilized sc IA^d-OVA 625 ng/well [6]: 116 U/ml | IL-2 concentration in DO11 super; immobilized sc IA^d-OVA 1250 ng/well [6]: 126 U/ml | IL-2 concentration in DO11 super; immobilized sc IA^d-OVA 2500 ng/well [6]: 143 U/ml | IL-2 concentration in DO11 super; immobilized scIA^d-OVA 39 ng/well (extended dilution) [6]: 0 U/ml | IL-2 concentration in DO11 super; immobilized scIA^d-OVA 78 ng/well (extended dilution) [6]: 17 U/ml | IL-2 concentration in DO11 super; immobilized scIA^d-OVA 156 ng/well (extended dilution) [6]: 24 U/ml | IL-2 concentration in DO11 super; immobilized scIA^d-OVA 312 ng/well (extended dilution) [6]: 35 U/ml | IL-2 concentration in DO11 super; immobilized scIA^d-OVA 625 ng/well (extended dilution) [6]: 38 U/ml | IL-4 concentration in DO11 super; immobilized sc IA^d-OVA 78 ng/well [6]: 7 U/ml | IL-4 concentration in DO11 super; immobilized sc IA^d-OVA 156 ng/well [6]: 10 U/ml | IL-4 concentration in DO11 super; immobilized sc IA^d-OVA 312 ng/well [6]: 16 U/ml | IL-4 concentration in DO11 super; immobilized sc IA^d-OVA 625 ng/well [6]: 15 U/ml | IL-4 concentration in DO11 super; immobilized sc IA^d-OVA 1250 ng/well [6]: 20 U/ml | IL-4 concentration in DO11 super; immobilized sc IA^d-OVA 2500 ng/well [6]: 23 U/ml | IL-r [IL-4] concentration in DO11 super; immobilized scIA^d-OVA 39 ng/well (extended dilution) [6]: 0 U/ml | IL-r [IL-4] concentration in DO11 super; immobilized scIA^d-OVA 78 ng/well (extended dilution) [6]: 0.8 U/ml | IL-r [IL-4] concentration in DO11 super; immobilized scIA^d-OVA 156 ng/well (extended dilution) [6]: 0.9 U/ml | IL-r [IL-4] concentration in DO11 super; immobilized scIA^d-OVA 312 ng/well (extended dilution) [6]: 1.5 U/ml | IL-r [IL-4] concentration in DO11 super; immobilized scIA^d-OVA 625 ng/well (extended dilution) [6]: 2 U/ml
